PMC9770967, “Native holdup (nHU) to measure binding affinities from cell extracts” (Science Advances, 2022)

Target: biotinylated PDZ-binding motif (PBM) peptide of diacylglycerol kinase zeta (DGKZ)
Test: native holdup (nHU) with Western blot; titration; biotinylated DGKZ PBM peptide on streptavidin resin as bait, mixed with biotin-saturated control resin at constant resin/analyte ratio; total Jurkat extract (2 mg/ml) as analyte; 4°C, 2 hours; prey depletion in the supernatant read by Western blot; apparent constants; three replicates

pKapp (negative logarithm of the apparent dissociation constant): 6.4 pKapp
Substance: endogenous full-length Scribble (SCRIB) (from UniProt Q14160 1-1655) (natural protein)
